The series has as its system MS2 coat protein. Put plainly: apparent KD of MS2 coat protein; designed switch direction (-1 OFF switch, 1 ON switch): -1; higher = weaker reporter binding. The gist of the method: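 Designed RNA switches with common flanks were made on Illumina chips by stalled E. coli RNA polymerase. Titration with SNAP-549-labelled MS2 coat protein doubled from 0.7 or 1.5 nM up to 3 µM. Apparent KD is each design's median over clusters after curve-fitting normalised fluorescence.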

[1] abbreviates: Eterna round: R95, input ligand: microRNA oligo, concentration not stated.
The mark [2] stands for this setting: Eterna round: R95, input ligand: FMN 200 uM.
[3] abbreviates: Eterna round: R95, input ligand: none.
[4] abbreviates: input ligand: microRNA oligo, concentration not stated.

Take “AAUAAGGGAGGAUAUGCGGAACGGUUUGUUCUCAGUGAGGCACAUGAGGAUCACCCAUGUAGAAGGCCCGGCAA [Orinar] (puzzle: Exclusion 2)”: under setting [1], the “apparent KD of MS2 coat protein” value is 13 nM.

For “AAUAAUAAAGUGAGGAUAUCUAGAGCCUCGGCUCUAGAGAAGGCACAUGAGGAUCACCCAUGUCUCAAUAAUAA [BmEx4/1-C5] (Eterna round: R97, puzzle: Brourd's mod of Exclusion 4)”, the “apparent KD of MS2 coat protein” value amounted to 60.5 nM (input ligand: FMN 200 uM) and 21.3 nM (input ligand: none).

Regarding “AAUAAUAAGGAGGAUAUCGUAUCGGAGACGAUACGAGAAGGCUUAACAUGAGGAUCACCCAUGUUCCUCAAUAA [Mat - Exclusion 6 - Eli Mod - D89] (puzzle: Exclusion 6)”, the “apparent KD of MS2 coat protein” value under setting [1] came out at 35.2 nM.

In the case of “AAUACAAGCUAUUGAUCCCACAUGAGGAUCACCCAUGUUCCUGGCCGUGAGGCUAGGUAGACAAUAGCUCGUCUUAU [Sensor-V1 #43] (Eterna round: R97, puzzle: Sensor, turn-off variant 1)”, the “apparent KD of MS2 coat protein” value runs as follows: (input ligand: FMN 200 uM) 27.9 nM; (input ligand: none) 26.4 nM.

“AAUACAAUAAUUAAAGAGAUAGUACAUUAUACAAGUGAAACAUGAGGAUCACCCAUGUCCUCAUUUGCUCGUCUAAU [Hunting Buffalo with a BB Gun] (puzzle: Sensor v3, turn-off variant 2)”: the “apparent KD of MS2 coat protein” value under setting [2] was determined as 334 nM, the “apparent KD of MS2 coat protein” value under setting [1] came to 142 nM and the “apparent KD of MS2 coat protein” value under setting [3] stood at 435 nM.

Turning to “AAUAUACAUGUAGGAUAUCUGCACGUGUAGUGCAGAGAAGGACAUGAGGAUCACCCAUGUAAUUAAGAUCAAUUAUUAAAUAUU [ENG1/3-B3] (Eterna round: R96, puzzle: Exclusion NG 1)”, the “apparent KD of MS2 coat protein” value runs as follows: (input ligand: FMN 200 uM) 447 nM; under setting [4], 32.2 nM; (input ligand: none) 62.3 nM.

Turning to “AAUAUCGUAGGAUAUUAGUGCUCAGACAUGAGGAUCACCCAUGUUUGGUGGGUUGGAGAAUGAGAAGGGCGAUGAA [EX5 #17] (Eterna round: R97, puzzle: Exclusion 5)”, the “apparent KD of MS2 coat protein” value amounted to 376 nM (input ligand: FMN 200 uM) and 687 nM (input ligand: none).

Regarding “AAUAUGUUAGGAUAUCUCAGCUGCCCGUAAACAGGCUAGCGAGAGAAGGGACAUGAGGAUCACCCAUGUCAUCC [Eternabot (Original) Solution 2] (Eterna round: R97, puzzle: Exclusion 4)”, the “apparent KD of MS2 coat protein” value by setting is: (input ligand: FMN 200 uM) 17.1 nM; (input ligand: none) 15.6 nM.

As to “AAUCAACAUGAGGAUCACCCAUGUGAGGAUAUAGGCAUGCAUGCAUGCAUGCAUGCAACUAGAAGGCACAAUAC [Design #18] (Eterna round: R97, puzzle: Exclusion 1)”, the “apparent KD of MS2 coat protein” value (input ligand: FMN 200 uM) came to 58.2 nM and the “apparent KD of MS2 coat protein” value (input ligand: none) is 37.4 nM.

Regarding “AAUCCACAUGAGGAUCACCCAUGUGAGGAUAUGAUACUAUGUACUUCGGUACAUAGUAUCAGAAGGCAUAUGAA [Ex1-3: 49] (puzzle: Exclusion 1)”, the “apparent KD of MS2 coat protein” value under setting [1] stood at 26.9 nM.

As for “AAUCCUAGAGGAUAUACAUGUGAACUACUGUACAUCCCUGUACAUGAGGAUCACCCAUGUAGAAGGCUGACGGA [Eternabot (L2) Solution 97] (Eterna round: R97, puzzle: Exclusion 2)”, the “apparent KD of MS2 coat protein” value (input ligand: FMN 200 uM) is 244 nM and the “apparent KD of MS2 coat protein” value (input ligand: none) worked out at 197 nM.

“AAUGCAAGCAAGAUCCUAAACAUGAGGAUCACCCAUGUGCUCGUCUUAUAAAGUACUAUCACGAAAGUGAUAGUACA [Sensor 3, v1 - 64] (puzzle: Sensor v3, turn-off variant 1)”: the “apparent KD of MS2 coat protein” value runs as follows: under setting [2], 515 nM; under setting [1], 132 nM; under setting [3], 744 nM.

For the sequence “AAUGGGUGUGUGAGGAUAUACGAAGGCAAUUGCCAGUAGAAGGUACAUGAGGAUCACCCAUGUGUCCAAAAGAG [Tititemaon] (puzzle: Brourd's mod of Exclusion 4)”, the “apparent KD of MS2 coat protein” value reads like this: under setting [2], 12.8 nM; under setting [1], 9.11 nM; under setting [3], 13.2 nM.

As to “AAUUAACAUCAGGAUAUGACUAGCUUCGGCUAGUCAGAAGGGAUGACAUGAGGAUCACCCAUGUGAUCAAUUAA [E6/2-A1] (Eterna round: R97, puzzle: Exclusion 6)”, the “apparent KD of MS2 coat protein” value runs as follows: (input ligand: FMN 200 uM) 127 nM; (input ligand: none) 134 nM.

Take “AAUUAAGCAAGCAGAUCCCACAUGAGGAUCACCCAUGUGCUCGUCUUAUAAGGUACUGUGACGAAAGUCACGGUACC [Mat - Sensor, turn-off var - Eli Mod - D72] (Eterna round: R97, puzzle: Sensor, turn-off variant 1)”: the “apparent KD of MS2 coat protein” value (input ligand: FMN 200 uM) was 129 nM and the “apparent KD of MS2 coat protein” value (input ligand: none) came to 120 nM.

On to “AAUUAGCAAGCAAGAUCCCACAUGAGGAUCACCCAUGUGCUCGUCUUAUAAGGUACUGUGACGAUAGUCACGGUACC [Mat - Sensor, turn-off var - Eli Mod - D49] (Eterna round: R97, puzzle: Sensor, turn-off variant 1)”, for which the “apparent KD of MS2 coat protein” value is, setting by setting: (input ligand: FMN 200 uM) 42.9 nM; (input ligand: none) 49.4 nM.

Consider “AAUUAGCAAGCGAGAUCCCACAUGAGGAUCACCCAUGUGCUCGUCUUAUAAAAGACUGUGACGAUAGUCACGGUCAC [Mat - Sensor, turn-off var - Eli Mod - D25] (Eterna round: R97, puzzle: Sensor, turn-off variant 1)”, for which the “apparent KD of MS2 coat protein” value is 15.3 nM (input ligand: FMN 200 uM) and 12.3 nM (input ligand: none).

Take “AAUUAGUCAGGAUAUACAUGAGGAUCACCCAUGUAAACUUUUAGUUUAAUUUGAAUGUGUAGAAGGGACAUUAA [Ex3 #48] (Eterna round: R97, puzzle: Exclusion 3)”: the “apparent KD of MS2 coat protein” value (input ligand: FMN 200 uM) worked out at 25.4 nM and the “apparent KD of MS2 coat protein” value (input ligand: none) is 29.7 nM.

With “AAUUCUAGGGUCAGACGCACAAGCUUUUUGCUCGUUUUAACAUGAGGAUCACCCAUGUCUAGUGGAUCUGAUCGGGC [JL ViennaUCT Isreen mod 8] (Eterna round: R96, puzzle: Sensor v3, turn-off variant 2)”, the “apparent KD of MS2 coat protein” value was 25.3 nM (input ligand: FMN 200 uM), 58.1 nM under setting [4] and 33.3 nM (input ligand: none).

In the case of “AAUUCUAGGGUCAGACGCACAAGCUUUUUGCUCGUUUUAACAUGAGGAUCACCCAUGUCUAGUGGAUCUGAUCGGGC [JL ViennaUCT Isreen mod 8] (puzzle: Sensor v3, turn-off variant 2)”, the “apparent KD of MS2 coat protein” value under setting [2] was 24.8 nM, the “apparent KD of MS2 coat protein” value under setting [1] was 72.9 nM and the “apparent KD of MS2 coat protein” value under setting [3] was found to be 22.4 nM.

Regarding “AAUUUAAUUAACAAGCUUUACAUGAGGAUCACCCAUGUGAUCAUGCUCGUCUUAUAAUUAAUUAAUUAAUUAAUUAA [Stov1/6-A1] (Eterna round: R97, puzzle: Sensor, turn-off variant 1)”, the “apparent KD of MS2 coat protein” value is, setting by setting: (input ligand: FMN 200 uM) 48.4 nM; (input ligand: none) 59.2 nM.

Take “AAUUUACAUGAGGAUCACCCAUGUGAGGAUAUAUGUUUAAAUUUUUUUUUUUUUUUUCAUAGAAGGCGCGUGAU [JR_Exc1_Sub048] (Eterna round: R97, puzzle: Exclusion 1)”: the “apparent KD of MS2 coat protein” value (input ligand: FMN 200 uM) stood at 17.3 nM and the “apparent KD of MS2 coat protein” value (input ligand: none) was found to be 31.6 nM.

Take “AAUUUACAUGAGGAUCACCCAUGUGAGGAUAUAUGUUUUAAUUUUUUUUUUUUUUUUCAUAGAAGGCGCGUGAU [JR_Exc1_Sub047] (Eterna round: R97, puzzle: Exclusion 1)”: the “apparent KD of MS2 coat protein” value reads like this: (input ligand: FMN 200 uM) 49.4 nM; (input ligand: none) 43.5 nM.

(Values after the supplement of paper PMC9170038.)
